From publication PMC8633023, “Crystal structures of phosphatidyl serine synthase PSS reveal the catalytic mechanism of CDP-DAG alcohol O-phosphatidyl transferases” (Nature Communications, 2021)

Columns and labels:
[1] = biological target: T1, MjPSS (phosphatidyl serine synthase, PS synthase) (Methanocaldococcus jannaschii, UniProt Q58609); experiment: activity measured as a function of citrate; crystal structure ([…] Å); assay type: biochemical; conditions: reversible; reversed by more serine, blocks or competes with serine; structural site near Asn109, Lys111, Lys157, called non-specific by authors
T1 construct: gene pssA; tag used for MST labelling), E. coli C41(DE3) membranes, solubilised in decyl maltoside; dimer

[2] = biological target: T1, MjPSS (phosphatidyl serine synthase, PS synthase); experiment: X-ray crystal structure (SeMet protein, […] Å); MST also shows binding; conditions: open state with CDP-DAG, Ca2+, Mg2+; Ser1 catalytic site, Ser2 judged artefact; in 7POW covalent to CDP-DAG in one protomer
[3] = substrate: N[C@@H](CO)C(=O)O; experiment: purified protein; conditions: co-substrate CDP-DAG, co-purified Mg2+ and Ca2+, 50 mM Tris-HCl pH 7.0, 50 mM NaCl, 0.2% DM, temperature of this assay not given
[4] = biological target: the molecule itself; experiment: crystal structure; crystals grown in meso (lipidic cubic / sponge phase, monoolein with 2% (w/w) CDP-DAG), 292 K; two molecules in the asymmetric unit

O=C(O)CC(O)(CC(=O)O)C(=O)O [citrate]
inhibition [1]: binding of citrate reversibly inhibits MjPSS, and that the inhibition is reversed by addition of more serine

N[C@@H](CO)C(=O)O [L-serine]
X-ray crystal structure (SeMet protein, 1.85 Å); MST also shows binding [2]: 7B1L for the open state with CDP-DAG and two serines

B1: MjPSS (phosphatidyl serine synthase, PS synthase) (Methanocaldococcus jannaschii DSM 2661) (protein)
chain: MFSIRKIITISDYVTMLNIITGLLAILLNSFSLIYLSIIFDSLDGYVARKTGTVSDFGAELDSISDVVSFGVAPAYLLYNNFESNLALISAIIFCLCGALRLARFGILNVKGFIGLPIPAGALLLVGFCQLINSYLINSILAILIGLLMISDIKYPKYPNKIFIYIFAVSLCLAIVGIPHFALMLCLIYAIYGIIKYIRGD
Km [3]: 460 ± 120 µM | kcat [3]: 0.123 ± 0.007 s⁻¹

B2: phosphatidyl serine synthase from Methanocaldococcus jannaschii (native MjPSS) (enzyme)
chain: MFSIRKIITISDYVTMLNIITGLLAILLNSFSLIYLSIIFDSLDGYVARKTGTVSDFGAELDSISDVVSFGVAPAYLLYNNFESNLALISAIIFCLCGALRLARFGILNVKGFIGLPIPAGALLLVGFCQLINSYLINSILAILIGLLMISDIKYPKYPNKIFIYIFAVSLCLAIVGIPHFALMLCLIYAIYGIIKYIRGD
notes: phosphatidyl serine synthase (CDP-DAG alcohol O-phosphatidyl transferase, EC 2.7.8.8) of Methanocaldococcus jannaschii; the vector pSKB2LNB adds an N-terminal His6-Tag and a PreScission site; 400 protein residues are modelled for the two protomers; also called PS synthase; wild-type MjPSS; source: E. coli C41-(DE3), purified from membranes (DM-solubilised, Co2+ chelating Sepharose, size-exclusion …)
stoichiometry N [4]: 2

B3: Seleno-methionine (SeMet) MjPSS (enzyme, Methanocaldococcus jannaschii)
chain: MFSIRKIITISDYVTMLNIITGLLAILLNSFSLIYLSIIFDSLDGYVARKTGTVSDFGAELDSISDVVSFGVAPAYLLYNNFESNLALISAIIFCLCGALRLARFGILNVKGFIGLPIPAGALLLVGFCQLINSYLINSILAILIGLLMISDIKYPKYPNKIFIYIFAVSLCLAIVGIPHFALMLCLIYAIYGIIKYIRGD
modifications: selenomethionine in place of methionine
notes: phosphatidyl serine synthase (CDP-DAG alcohol O-phosphatidyl transferase, EC 2.7.8.8) of Methanocaldococcus jannaschii; same construct as m1, SeMet substituted; Same construct as m1; also called SeMet-labelled protein; SeMet substituted protein; source: E. coli, M9 minimal medium with SeMet, IPTG-induced; purified as native MjPSS (final SEC on Superdex 200 Increase)
stoichiometry N [4]: 2
